The values below come from publication PMC10397247.

One assay addresses T1, Core_IIIN-es_KKKE.
T1 chain: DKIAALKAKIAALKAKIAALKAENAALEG
Put plainly: two-hybrid library CCmax.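 Further: natural log of median RNA to DNA barcode read ratio; higher means stronger binding.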 The settings on record: mean of both orientations.

Assay [1] concerns the target T2, GCN4-SR.
T2 chain: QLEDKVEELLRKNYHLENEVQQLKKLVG
Briefly: two-hybrid library CCNG1.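 Further: natural log of median RNA to DNA barcode read ratio; higher means stronger binding.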

Assay [2] addresses T2, GCN4-SR. Put plainly: two-hybrid library CCmax.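 Further: natural log of median RNA to DNA barcode read ratio; higher means stronger binding.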
Another assay has as its target T3, Core_INNN-es_KEKE.
T3 chain: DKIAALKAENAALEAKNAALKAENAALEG
Put plainly: two-hybrid library CCmax.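 Further: natural log of median RNA to DNA barcode read ratio; higher means stronger binding.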 The settings on record: mean of both orientations.

B1: Core_IIIN-es_EEEK (peptide)
chain: DEIAALEAEIAALEAEIAALEAKNAALKG
The molecule B1 returned an interaction score with Core_IIIN-es_KKKE of 2.19.

B2: GCN4-SR (peptide)
chain: QLEDKVEELLRKNYHLENEVQQLKKLVG
On to B2, for which the figures for the interaction score in the assay with GCN4-SR [1] and with GCN4-SR [2] were -2.35 and -1.35, respectively.

B3: Core_INNN-es_EKEK (peptide)
chain: DEIAALEAKNAALKAENAALEAKNAALKG
With B3, in the assay with Core_INNN-es_KEKE, the interaction score was determined as 2.
